{"source": "the DeepSol protein solubility set", "data": [{"assay": "soluble on expression in E. coli; label from the status in PepcDB or PDB records", "values": [{"sequence": "MDYEKTLLMPKTDFPMRGGLPNKEPQIQEKWDAEDQYHKALEKNKGNETFILHDGPPYANGNLHMGHALNKILKDFIVRYKTMQGFYAPYVPGWDTHGLPIEQALTKKGVDRKKMSTAEFREKCKEFALEQIELQKKDFRRLGVRGDFNDPYITLKPEYEAAQIRIFGEMADKGLIYKGKKPVYWSPSSESSLAEAEIEYHDKRSASIYVAFNVKDDKGVVDADAKFIIWTTTPWTIPSNVAITVHPELKYGQYNVNGEKYIIAEALSDAVAEALDWDKASIKLEKEYTGKELEWVVAQHPFLDRESLVINGDHVTTDAGTGCVHTAPGHGEDDYIVGQQYELPVISPIDDKGVFTEEGGQFEGMFYDKANKAVTDLLTEKGALLKLDFITHSYPHDWRTKKPVIFRATPQWFASISKVRQDILDAIENTNFKVNWGKTRIYNMVRDRGEWVISRQRVWGVPLPVFYAENGEIIMTKETVNHVADLFAEHGSNIWFEREAKDLLPEGFTHPGSPNGTFTKETDIMDVWFDSGSSHRGVLETRPELSFPADMYLEGSDQYRGWFNSSITTSVATRGVSPYKFLLSHGFVMDGEGKKMSKSLGNVIVPDQVVKQKGADIARLWVSSTDYLADVRISDEILKQTSDDYRKIRNTLRFMLGNINDFNPDTDSIPESELLEVDRYLLNRLREFTASTINNYENFDYLNIYQEVQNFINVELSNFYLDYGKDILYIEQRDSHIRRSMQTVLYQILVDMTKLLAPILVHTAEEVWSHTPHVKEESVHLADMPKVVEVDQALLDKWRTFMNLRDDVNRALETARNEKVIGKSLEAKVTIASNDKFNASEFLTSFDALHQLFIVSQVKVVDKLDDQATAYEHGDIVIEHADGEKCERCWNYSEDLGAVDELTHLCPRCQQVVKSLV", "soluble on expression in E. coli": "soluble"}, {"sequence": "MDYFPVISVDLQSGRRVVSVEYFRGDGPPRIPYSMVGPCCVFLMHHRPSHEVRLRFSDFYNVGEFPYRVGLGDFASNVAPPPAKPFQRLIDLIGHMTLSDFTRFPNLKEAISWPLGEPSLAFFDLSSTRVHRNDDIRRDQIATLAMRSCKITNDLEDSFVGLHRMIATEAILRGIDLCLLPGFDLMYEVAHVQCVRLLQAAKEDISNAVVPNSALIVLMEESLMLRSSLPSMMGRNNWIPVIPPIPDVEMESEEESDDDGFVEVD", "soluble on expression in E. coli": "not soluble"}, {"sequence": "MDYKVSVLIVCYNQEKYIKKALESVLSQKVNFNYEIVVCDDCSSDRTFNILQEYKSKLGSKLNLIRNYKNLGITLNYKNGFKNCKGEYIAVLEGDDYWIQKSKLKRQVSFLESNRDCSLVFNKIVLDYGDEKINNLIYPFNDIRKKFSARELVRSNFIQNFSCCMYRKSSIRKLRESIYDMVVYDWMFNMAVAQFGLIGYIPNYMTSHRILKSGLWSGKSKMENLQMISKCIDQYDSFFKYKYRKEFSQNKQEVLQALRRLVMVNENGLEHHHHHH", "soluble on expression in E. coli": "soluble"}, {"sequence": "MDYRVLLYYKYVTIDDPETFAAEHLKFCKEHHLKGRILVSTEGINGTLSGTKEDTDKYIEHMHADNRFADLTFKIDEAESHAFKKMHVRPRREIVALDLEEDINPREITGKYYSPKEFKAALEDENTVILDARNDYEYDLGHFRGAIRPDITRFRDLPEWVRNNKEQLDGKNIVTYCTGGIRCEKFSGWLVKEGFENVGQLHGGIATYGKDPETKGQYWDGKMYVFDERISVDVNQIDKTVIGKEHFDGTPCERYINCANPECNKQILVSEENEEKYLGACSYDCAKHERNRYVARHHISNEEWQRRLNNFKDVPEHTHA", "soluble on expression in E. coli": "not soluble"}, {"sequence": "MEAFIRSDQYNFIKSQAYILANGHATANDRGVIQALKSLAIEKIIHVFENLTDEQKELIDTVLTVQNREDAESFLTKINPYVIPFQEVTAQTLKKLFPKAKKLKLPDMEEMDMKEISYLSWVDKGSSRKFIIAKNDKNKFVGLQGTFQSLNKKSICSLCHGHEEVGMFLVEIKGDIPGTFVKKGNYICKDGVACNQNMKSLDKLQDFIERLKK", "soluble on expression in E. coli": "not soluble"}, {"sequence": "MEAKQRIIPAIKTMKQFDAFLSSGYTVGVLLEVHIAQLKSIFAYARRHGKELIVHVDLVQGLSHDEHAAEYLCQEFRPHGLISTKAGVIMKARQKRVLAVQRIFLLDSHALEKSYQLIAKTNPDCIEVIPGAMPHIIREVKERTGKPIYAGGLIRTVDDVERALAAGAAAVTTSNETLWRHYNG", "soluble on expression in E. coli": "not soluble"}, {"sequence": "MEASLYSRVGDKVVCQLCWRFCKLGDGEEGHCRVRRNEGGKIFTTTYGKLSHLESRPIEIKPFFHFLPGSTSMTFSTYSCNFDCPWCQNWSISKATPPEALRETSPEEVVDLALIMGDKSTCASLNEPTLLYEYLLDVFRLAREKGLKNTMVSNGYMSILALKNLKNAGLDAINIDVKGDERVYRDYCNAEVEYVWRVIEKATKLGIHVEVVCLLVSNVVDEEVVREIVREHLRRAGSSIPIHFTRYFPAYRFTAPPTRIEFLEWAVKHAYKEGAEFAYIGNVPGHRFENTHCPDCGELLIRRYSFSTVDNRIRSGCCPKCGREIYGVWV", "soluble on expression in E. coli": "not soluble"}, {"sequence": "MEAYLKKLCFEYQVEEKEVKELLARMERVYLDKGETIASATMPEQSLYIIVSGILHTFTTQQGEDKTVRFLSEGDAILCYNTSKHSVKTLTRCVAYYISEDEIEELCATSITFSNLIRQMMEYQFYLKEEMSVNARKLTIRERYLSLLSEIPDILYRVPLKYITYYLGADVTSLGYLAGSCK", "soluble on expression in E. coli": "not soluble"}, {"sequence": "MEDDMSVVDNIRFTFLYIEFYSMGRTWVYPESVIPYSIFRYIEKGKAELCIDGEEIIVEENQIVYIPQGCKMSCRALGESFEFYSLRFTTSVFYEGEDMLAEYYGIPRVSVNEGEDVYFKEIYKWVKKDSMVKKCFVRGNLDLLIGSLAMHGNKVDKVTGDFVETIEEKSLRDRNSKKNEQIDPRIYIVADYIILHPSEKYTPQKMAEMADLSKQRFSSLFKINMGKTPMEYVREIRLTTAARALLVSNDNINDIAYACGYEDTNYFIREFKSAFGFTPNQYRKVARE", "soluble on expression in E. coli": "not soluble"}, {"sequence": "MEDELEKYKRENADLKKEIERLKNSSASNTYKVIFEASPDILIQLNADYKIIVIHIPNIEEERVNTVVGKDIFDVTPEYTHVKMKNALTSVFRDGEVVKYFSEGETMGSYRYYDNYLSPIKDAEGNITTVYFRSRDIT", "soluble on expression in E. coli": "not soluble"}, {"sequence": "MEDKIGTTLTTRTVTGSLTPFIPIQDGDQLLVNGRSQDLYGWIYITELLDVINVYPLSLNNNSIVNFQPGTNIFFQLESSSYSSMRVPVARNVAIGKTTTLKGYVGLPDNAGIKFFDDSSIKK", "soluble on expression in E. coli": "not soluble"}, {"sequence": "MEDKRLIREKILRNLNSIDKVEHRERSIKLAEKLFLLPEWENAKVVGITLARHPEIETEAIILQAKKEGKTILIPKTYYPSRKMEFKKMDSIHPLIKSKFGILEPNELAETVDKKVIDLLIVPGVAFNKDHYRIGFGGGFYDRFLTDFQGHTVSLYLYEQQIEFTPETHDEPVSILIGGLEHHHHHH", "soluble on expression in E. coli": "not soluble"}, {"sequence": "MEDLLVVGQIINTHGLRGEMKVMPLTEDMRRFDYLEYVILKGKKVKVEGVKYFKDKVILKLEGINSIEEAEKLKRTYLEIEREDAIELEEDEYFIVDLVGCTVVDTEGFEYGKIKDVIQTPSNDVYWVQGKKEVLVPVLKDIVLDINMDEKLITIRPSGEWQYEDLEHHHHHH", "soluble on expression in E. coli": "not soluble"}, {"sequence": "MEEGVNMDIRPTRIELIRTRRRIRLAKKGLDLLKMKRSALIYEFLQISRTIRGMKENLRKEVVEALNIIKVASVLEGSLALERIANMSSDSRINVNSRNVMGVNIPTLEVSYNLSILSDVYRTVSVPVAIDDSIRRFQKLFYDLILIVEKENSLRNLLMEIDRTKRRSNAIENILIPRLEYQAKMIKMTLDERERDTFTTLKTIKKKIEAENDLEHHHHHH", "soluble on expression in E. coli": "not soluble"}, {"sequence": "MEEHPRAWIISVGNELLIGRTINTNAAWLGSRLTLLGFEVERVVTVPDRVEDIAEEVGRALGRARVVITTGGLGPTYDDVTLQGVAMALGRGLKLHPGALEMVRRFYSKRGLGLTEDRVKMAMLPDGAEPLENPVGAAPGAVVEARGSLVASLPGVPSEMEAMFEKALRPLLEEIAPPGAVVECGIAVVGVPESSLAPYIKEASRVSPRVYVKSHPQGSEIGKPLVR", "soluble on expression in E. coli": "not soluble"}, {"sequence": "MEEKVEFILEVRSIPVYGDEFSPRLRKFFPIDYEPVERVTVPTSKKADYAVMISSNLKPFSIKEGDYILISLDDEPQEGDLVAVLVKDFRITVGRVKERQEDIFVVEVGNEVGIYRCFIFPYLDQLHRSSFELSFNPYVLGKITAILRKKPAH", "soluble on expression in E. coli": "soluble"}, {"sequence": "MEELTIWEQHTATLYKDPRRGFGIAVSGGHDRASGSVVVSDVVPGGPAEGRLRTGDHIVMVNGVSVENVTSAFAIQILKTCTKTANVTVKRPRRVQLPATKASPASGHQLSDQEEADHGRGYEGDSSSGSGRSWGERSRRSRAGRRGRVGSHGRRSSGGGSEANGLDLVSGYKRLPKQDVLMRPLKSVLVKRRNSEEFGVKLGSQIFIKHITESGLAARNHGLQEGDLILQINGVSSANLSLSDTRRLIEKSEGELTLLVLRDSGQFLVNIPPAVSDSDSSLMEDISDLTSELSQAPPSHVPPPPLKGQRSPEDSQTDSPVETPQPRRRERSVNSRAIAEPESPGESRYDIYRVPSRQSLEDRGYSPDTRVVSFPKGASIGLRLAGGNDVGIFVSGVQAGSPADGQGIQEGDEILQVNGMPFRNLTREEAVQFLLGLPPGEDMELVTQSKQDIFKKMVQSRVGDSFYIRTHFELEPSPPYGLGFTRGDVFHVVDTLYPGSGPGHGHSSHGGLWLAARMGRDLREQERGVIPNQSRAEQLASLEAAQRAAGVGPGASVGSNPRAEFWRLRGLRRGTKKASTQRSREDLSALTRQGHYPPYERVVLREASFKRPVVILGPVADIAMKKLTTEMPEEFEIAESMSRTDSPSKIIKLDTVRVIAERDKHALLDVTPSAIERLNYVQYYPIVIFCAPESRPALKALREWLAPASRRSSRRLYAQAQKLQKHSGHLFTATIPLHGTSDSWYQEVKAVIQQQQARPIWTAEDQLNSSSEDLDLPGHGLAASSGDLSCDSRTNSDYEDTDGEGAYTDREGGPQDVDEEVAPTALARSSEPVWVDDHQGLMGHGTTITDKWETQADSHYTQDQRRQDSMRTYKHEALRKKFTRARDVESSDDEGYDWGPATDL", "soluble on expression in E. coli": "soluble"}, {"sequence": "MEELVGLLRIRVKRGINLAQRDTLSSDPFVVITMGSQKLKTRVVENNCNPEWNEELTLALRHPDEPVNLIVYDKDTFTSHDKMGDAKIDIKPFLEVHKMGLQELPDGTEIKRVVPNRENCLAEASSIVSNNGKIVQNMILLLRNVECGEVEIQLEWIDIPGSRGL", "soluble on expression in E. coli": "not soluble"}, {"sequence": "MEEMSMEKIVNDILKEEVYYEKLQNGLDVYFMPKRGFMKKYAILATNYGSNDLEFVPIGEDKKIRVNEGIAHFLEHKMFEQPDGGDAFDKFSKLGVNANAFTNFTMTAYLFSATENFYESLEHLIDYVQTPYFTDENVEKEKGIIAQEIKMYNDDPDWNVYFNCLKAMYVNYPARIDIAGTVDSIYKITKEELYKCYNTFYNPGNMALFVVGDLDVEKVIDVTKKS", "soluble on expression in E. coli": "not soluble"}, {"sequence": "MEERNEQVVEEVKEAQVEEAVTPENSEETVEEKSEAALLQEKVDELQAKLTETEGRTLRLQADFENYKRRVQMDKQAAEKYRAQSLVSDILPALDNFERAMQVEATDEQTKSLLQGMEMVHRQLLEALNKEGVEVIEAVGKQFDPNEHQAIMQVEDSEFESNAVVEEFQKGYKLKDRVIRPSMVKVNQ", "soluble on expression in E. coli": "not soluble"}, {"sequence": "MEEWPALQWSQGTPASGPALQALEEYAFVPRDDESRQGIRTDALLVIRDGRLLYERYAGATGPQTPHLAWSASKSLLAVLLGVAFGEGRFQLQDPAAKFYPPLEAHPDITLADLLHWASGLDWQEDYEYAPLNSSVVAMLYTRGHRDMAAFTVQQAASGPPGQVFRYSSGDSNLLAASLRGMVGEGQYADYPWRALFEPLGITQAVWERDAAGTFVASSYLYLTARDLARIGLLMQRDGRWRDRQLLPKAWVEFCRTPFRGYRANQDVAVAGGHWWLNREVDGAPRPWPDAPADTYAALGHWGQALYVLPAQRLVIVRYGDDRDGSYQHNELLKRVLAAFATPEQPLEHHHHHH", "soluble on expression in E. coli": "not soluble"}]}]}
